According to the supplement of paper PMC10724198:
± gives the standard deviation of the averaged measurements.
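Also: PSI is a weighted mean of sequencing reads over stability bins, variants kept only with over 10 reads, mCherry proximal and sfGFP distal, peptide attached via GGGS linker.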

Each sequence was assayed on Saccharomyces cerevisiae (assay: protein stability index of tFT-peptide fusion (C-terminal peptide) (PSI (0-1 scale)); higher = more stable (slower turnover)). Conditions: genetic background: wild type; temperature: 30 C.
Method: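 Multiplexed protein stability (MPS) profiling in S. cerevisiae. Random 12-aa peptides (tFT-X12 library) are fused to the C-terminus of a sfGFP-mCherry tandem fluorescent timer, after mCherry and a GGGS linker. Cells are FACS-sorted into 8 mCherry/sfGFP bins and deep-sequenced. The protein stability index (PSI) is the read-weighted bin average, scaled from 0 (unstable) to 1 (stable). Only peptides with >10 reads are reported; cells were grown at 30 °C in SC-His with glucose.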
AACGELLKYSLS was tested, and the protein stability index was 0.576 ± 0.011. For AADNTGRNKGPQ, the protein stability index was 0.685 ± 0.0095. Work on AAEPGGGTALRG yielded a protein stability index of 0.637 ± 0.029. AAGGPGGPELWG gave a protein stability index of 0.749 ± 0.14. AAGLHFYIFRGI was tested, and the protein stability index was 0.669 ± 0.025. AAGRRGWGRGRG was tested, and the protein stability index was 0.788 ± 0.15. AAGWRPEGSGAF showed a protein stability index of 0.725 ± 0.033. For AALLSSPPLSPP, the protein stability index was 0.662 ± 0.062. For AAPSRASDLARP, the protein stability index was 0.661 ± 0.087. AARCSPSQEDSF showed a protein stability index of 0.697 ± 0.12. AARGILLASRRD was tested, and the protein stability index was 0.739 ± 0.092. With AASGCGRPGCSA the protein stability index was 0.663 ± 0.059. In the case of AAVGELLFTSLV, the protein stability index is reported as 0.699 ± 0.022. AAVPPLSQSPDS showed a protein stability index of 0.674 ± 0.03. For ACCIFAFHRSLS, the protein stability index was 0.487 ± 0.032. ACFVVDHGPLHL showed a protein stability index of 0.695 ± 0.031. With ACPLPPLPTPLP the protein stability index was 0.736 ± 0.04. ACPQPSPSPSQY was tested, and the protein stability index was 0.672 ± 0.048. With ACRREMISVLYT the protein stability index was 0.624 ± 0.0075. For ACTPHLPLPAPQ, the protein stability index was 0.706 ± 0.016. In the case of ACWVAKTGGSPV, the protein stability index is reported as 0.654 ± 0.012. ADAFDRGRISVV gave a protein stability index of 0.792 ± 0.11. ADDTFSERIHSK was tested, and the protein stability index was 0.7 ± 0.093. For ADPNDSPPPASP, the protein stability index was 0.617 ± 0.026. ADRGLVSLAIVG was tested, and the protein stability index was 0.582 ± 0.015. With ADRTLLLKQWYG the protein stability index was 0.682 ± 0.037. AEAVQQGVTIGG gave a protein stability index of 0.68 ± 0.014. AEFSGVVIGRWW was tested, and the protein stability index was 0.718 ± 0.054. For AEGPWMEDGDMG, the protein stability index was 0.7024 ± 0.0028. Sequence AELSPGLSVLLL has a protein stability index of 0.705 ± 0.013. AERGRMLSEGKW gave a protein stability index of 0.701 ± 0.053. AFCCRSPPSSHP gave a protein stability index of 0.655 ± 0.096. For AFCPLLLRGTAP, the protein stability index was 0.697 ± 0.045. AFLDISIPSSSL gave a protein stability index of 0.6857 ± 0.0063. In the case of AFQLGMILSLVA, the protein stability index is reported as 0.507 ± 0.013. For AFRKRTFKQESC, the protein stability index was 0.642 ± 0.0098. Sequence AFWYACMSLHRS has a protein stability index of 0.728 ± 0.07. AFYERLQEWIRA was tested, and the protein stability index was 0.613 ± 0.014. For AGAGGGSLGPAG, the protein stability index was 0.651 ± 0.1. In the case of AGAGGRAMSDTS, the protein stability index is reported as 0.693 ± 0.0087. In the case of AGAGRGVVLGWW, the protein stability index is reported as 0.684 ± 0.017. AGAGVQAYGRGR was tested, and the protein stability index was 0.681 ± 0.015. In the case of AGANPRVGTFWV, the protein stability index is reported as 0.664 ± 0.032. For AGARGVAGWLPR, the protein stability index was 0.684 ± 0.041. With AGARVGAPASTR the protein stability index was 0.664 ± 0.028. In the case of AGAWVRVVVGWG, the protein stability index is reported as 0.737 ± 0.012. Sequence AGCLSGPVDILL has a protein stability index of 0.703 ± 0.046. For AGEDRGSRWVCI, the protein stability index was 0.699 ± 0.032. With AGFTATTPIRGV the protein stability index was 0.715 ± 0.022. Work on AGGAGGCRGWSI yielded a protein stability index of 0.705 ± 0.018. Work on AGGGCALGDGWS yielded a protein stability index of 0.649 ± 0.021. Sequence AGGGEASRGQAK has a protein stability index of 0.596 ± 0.0062. Sequence AGGGKGGGGGEK has a protein stability index of 0.649 ± 0.029. For AGGGRGGGSLRV, the protein stability index was 0.669 ± 0.034. AGGIAVYFGEEE was tested, and the protein stability index was 0.746 ± 0.055. AGGLGGSILCLV was tested, and the protein stability index was 0.556 ± 0.025. AGGSVCRESLEV showed a protein stability index of 0.694 ± 0.064. Sequence AGGTMVVVVRSC has a protein stability index of 0.51175 ± 3.2e-05. Sequence AGGVCHVSSLLA has a protein stability index of 0.64 ± 0.021. In the case of AGGVESGGRSGV, the protein stability index is reported as 0.679 ± 0.02. AGHGGWREAGGG was tested, and the protein stability index was 0.685 ± 0.0076. With AGLCVSIGVGRG the protein stability index was 0.652 ± 0.015. For AGLGHVPGEHSV, the protein stability index was 0.613 ± 0.033. AGLPGSSFWWVF was tested, and the protein stability index was 0.682 ± 0.058. AGLVADGYWLRR gave a protein stability index of 0.6892 ± 0.005. Sequence AGLWWGGCAAGA has a protein stability index of 0.804 ± 0.037. AGRAPRGSWECS showed a protein stability index of 0.719 ± 0.18. With AGRGEIVINGKR the protein stability index was 0.615 ± 0.07. AGRLEGGRRWRV was tested, and the protein stability index was 0.69 ± 0.031. Work on AGSDLGLIEGIV yielded a protein stability index of 0.685 ± 0.024. In the case of AGSHPSRLGIFS, the protein stability index is reported as 0.733 ± 0.033. AGSSSLRGRLRG was tested, and the protein stability index was 0.69 ± 0.068. AGSTGGGRGRDW gave a protein stability index of 0.76 ± 0.14. AGTGAHGLREPR was tested, and the protein stability index was 0.706 ± 0.15. AGTHRDLFQRWS gave a protein stability index of 0.711 ± 0.046. AGTVGRGVSGGR gave a protein stability index of 0.5746 ± 0.0044. Work on AGVCVAVGGGGF yielded a protein stability index of 0.676 ± 0.03. In the case of AGVDKWLMCEVS, the protein stability index is reported as 0.695 ± 0.034. For AGVGPTHVRPPR, the protein stability index was 0.676 ± 0.0079. In the case of AGVRGWGIAVTP, the protein stability index is reported as 0.64 ± 0.046. AHGAGCGGRRVA gave a protein stability index of 0.726 ± 0.023. With AHLPHSSFSWRP the protein stability index was 0.707 ± 0.05. Work on AHLPSPRPRPPP yielded a protein stability index of 0.764 ± 0.013. For AHYGSNNNGLVF, the protein stability index was 0.695 ± 0.042. For AIKGIYPRCYFI, the protein stability index was 0.697 ± 0.0073. AIKHMVSHSPGN was tested, and the protein stability index was 0.683 ± 0.08. AILFSASLTLLL showed a protein stability index of 0.598 ± 0.012. Sequence AILPFGLLPTHR has a protein stability index of 0.745 ± 0.017. With AILTLVQEVRKY the protein stability index was 0.6203 ± 0.00088. For AIPLPVLSFPPL, the protein stability index was 0.737 ± 0.024. AIPLYAPSQPCE showed a protein stability index of 0.696 ± 0.027. Work on AIRGGPGGDKEP yielded a protein stability index of 0.682 ± 0.024. Sequence AISCPFIRFSSL has a protein stability index of 0.614 ± 0.0091. AITSPLGFGVLG gave a protein stability index of 0.717 ± 0.015. Work on AKEENQRKYTRR yielded a protein stability index of 0.637 ± 0.13. In the case of AKGRRRRGRWWG, the protein stability index is reported as 0.682 ± 0.032. With AKLVESISEVAT the protein stability index was 0.6766 ± 0.0052. Sequence AKRLYLLTNRND has a protein stability index of 0.634 ± 0.025. AKSKVAGNVGGD gave a protein stability index of 0.669 ± 0.017. In the case of ALCEVLSKSFEF, the protein stability index is reported as 0.6617 ± 0.0025. In the case of ALCSGCFAFLGA, the protein stability index is reported as 0.676 ± 0.11. ALEFNGLVAGRL showed a protein stability index of 0.727 ± 0.081. Sequence ALGVRVSVLGVL has a protein stability index of 0.642 ± 0.0075. With ALKVMYMHTGKG the protein stability index was 0.62 ± 0.041. In the case of ALLLTLTCGLFF, the protein stability index is reported as 0.521 ± 0.019. Work on ALMITIMNNREF yielded a protein stability index of 0.649 ± 0.021. In the case of ALPLPLLACSPL, the protein stability index is reported as 0.6268 ± 0.0034. In the case of ALRLLRFPSPPP, the protein stability index is reported as 0.628 ± 0.049. Work on ALRVSGAYREHS yielded a protein stability index of 0.735 ± 0.032. With ALSPAFSPLFLP the protein stability index was 0.668 ± 0.036. With ALSSVPPCSLPP the protein stability index was 0.637 ± 0.016. In the case of ALSVGGGSGSWY, the protein stability index is reported as 0.736 ± 0.014. ALVQWRVGGCGG showed a protein stability index of 0.709 ± 0.085. In the case of ALWARSGRVILI, the protein stability index is reported as 0.674 ± 0.05. AMGSGLVWAGPA was tested, and the protein stability index was 0.684 ± 0.03. ANQGRRPWRGMC showed a protein stability index of 0.585 ± 0.14. Work on ANRSPLFCVTFG yielded a protein stability index of 0.695 ± 0.027. Sequence APACRLTLVSDF has a protein stability index of 0.752 ± 0.014. APARPPVTLSTN showed a protein stability index of 0.671 ± 0.013. APARTTPRLPFA was tested, and the protein stability index was 0.724 ± 0.069. APDPPGLRGLSP gave a protein stability index of 0.719 ± 0.015. For APDRLPLSRCPA, the protein stability index was 0.699 ± 0.02. Work on APFMSLSNTIAR yielded a protein stability index of 0.677 ± 0.026. APFPMVSSLSFL showed a protein stability index of 0.761 ± 0.037. In the case of APGLPSFRSLFA, the protein stability index is reported as 0.676 ± 0.016. Work on APHAPPPSFPAP yielded a protein stability index of 0.729 ± 0.0097. APHPPPPDPPLP was tested, and the protein stability index was 0.697 ± 0.04. In the case of APKVYVAAYTPL, the protein stability index is reported as 0.676 ± 0.025. APKYPIQEWIKL showed a protein stability index of 0.594 ± 0.031. With APLFASSASIPL the protein stability index was 0.716 ± 0.11. APLLQCPILARP was tested, and the protein stability index was 0.588 ± 0.0067. APLSLPPPPSPH showed a protein stability index of 0.696 ± 0.033. In the case of APPALPPLSPFP, the protein stability index is reported as 0.705 ± 0.091. APPAPPTYLAPF gave a protein stability index of 0.729 ± 0.069. APPPLLPLRPFR was tested, and the protein stability index was 0.606 ± 0.1. In the case of APPPLPPARSPP, the protein stability index is reported as 0.6541 ± 0.0056. With APPPLPPTPPPL the protein stability index was 0.7017 ± 0.0031. Sequence APPPNSLPPPPP has a protein stability index of 0.72 ± 0.022. With APPPPLPAPQLR the protein stability index was 0.6186 ± 0.0011. APPPPSPPSLAS showed a protein stability index of 0.736 ± 0.074. In the case of APPPRPPPPPQL, the protein stability index is reported as 0.67 ± 0.031. Sequence APPPSPPALVLP has a protein stability index of 0.641 ± 0.026. Work on APRCCPHLLRFR yielded a protein stability index of 0.655 ± 0.055. APSPRPSRPPPL gave a protein stability index of 0.671 ± 0.034. In the case of APSQPPTPPPIS, the protein stability index is reported as 0.665 ± 0.03. APSTFRPPTPPS showed a protein stability index of 0.711 ± 0.03.
